Assay results from US20250361321A1 (Memorial Sloan Kettering, published 2025).
Positions count from the first letter of the chain named.

B1: anti-MUC16 clone 8 BsAb (Clone 8/anti-CD3 bispecific antibody) (bispecific antibody)
chain: DIQLTQSPSAVSASVGDRVTITCRASQDVSKWLAWYQQKPGKAPRLLISAASGLQSWVPSRFSGSGSGTEFTLSISSLQPEDFATYYCQQANSFPWTFGQGTKVEIKRSRGGGGSGGGGSGGGGSLEMAQVQLQQWGAGLLKPSETLSLTCAVYGGSFSGYYWSWIRQPPGKGLEWIGEINHSGSTNYNPSLKSRVTISVDTSKNQFSLKLSSVTAADTAVYYCARQSYITDSWGQGTLVTVSSTSGGGGSDVQLVQSGAEVKKPGASVKVSCKASGYTFTRYTMHWVRQAPGQGLEWIGYINPSRGYTNYADSVKGRFTITTDKSTSTAYMELSSLRSEDTATYYCARYYDDHYCLDYWGQGTTVTVSSGEGTSTGSGGSGGSGGADDIVLTQSPATLSLSPGERATLSCRASQSVSYMNWYQQKPGKAPKRWIYDTSKVASGVPARFSGSGSGTDYSLTINSLEAEDAATYYCQQWSSNPLTFGGGTKVEIKHHHHHH
notes: It was secreted from CHO cells; also called clone 8 bispecific antibody; anti-MUC16 clone & BsAb
B2: anti-MUC16 clone 8 scFv antibody phage clone (scFv)
scFv: DIQLTQSPSAVSASVGDRVTITCRASQDVSKWLAWYQQKPGKAPRLLISAASGLQSWVPSRFSGSGSGTEFTLSISSLQPEDFATYYCQQANSFPWTFGQGTKVEIKRSRGGGGSGGGGSGGGGSLEMAQVQLQQWGAGLLKPSETLSLTCAVYGGSFSGYYWSWIRQPPGKGLEWIGEINHSGSTNYNPSLKSRVTISVDTSKNQFSLKLSSVTAADTAVYYCARQSYITDSWGQGTLVTVSS
notes: The phage coat fusion is not described
B3: anti-MUC16 clone 12 scFv antibody phage clone (scFv)
scFv: NFMLTQPHSVSESPGKTVTISCTRSRGSIASAYVQWYQQRPGSAPITVIYEDYERPSEIPDRFSGSIDSSSNSASLTISGLKTEDEADYYCQSYDDNDHVIFGGGTKVTVLGSRGGGGSGGGGSGGGGSLEMAQVQLQQWGAGLLKPSETLSLTCAVYGGSFSGYYWSWIRQPPGKGLEWIGEINHSGSTNYNPSLKSRIIMSVDTSKRQFSLKLRSATAADTAVYYCARWSPFSYKQMYDYWGQGTLVTVSS
notes: as for B2

How the values were obtained:
[1] = biological target: T1, human MUC16 as expressed on MUC16+ cancer cell lines (OVCAR3, SKOV8, OVCA432) (human); test: FACS on MUC16+ OVCAR3 cells, BsAb followed by a secondary antibody, against secondary antibody alone
T1 construct: This is endogenous MUC16 on ovarian cancer cell lines; also called hMUC16; Mucin-16
Protocol: In this example, the specificity of the anti-MUC16 BsAbs for binding to cancer cells that express MUC16 was assessed. In one study, two target cell lines were employed, a MUC16⁺ OVCAR3 cell line and a MUC16 SKOV3 cell line. OVCAR3 and SKOV3 cell lines were obtained through the American Type Culture Collection (ATCC®, Manassas, VA) and sustained in culture according to the ATCC® literature. FACS analysis of anti-MUC16 antibody binding to the two target cell lines was performed to confirm that antibody binding was observed only with the MUC16+ OVCAR3 cell line. SKOV3 or OVCAR3 cell lines were incubated with the anti-MUC16 Ab followed by a secondary antibody or with a secondary antibody alone as a control.

[2] = biological target: T2, N30 mutant MUC16-C114-GFP fusion protein expressed on HEK293 cells (HEK293-MUC16mut) (human); test: FACS, scFv phage on HEK293-MUC16mut cells
T2 construct: The GFP signal of this line was weaker than that of the WT line (26x against 170x MFI increase); also called MUC16c114 N30A; not shown: GFP fusion partner
T2 chain: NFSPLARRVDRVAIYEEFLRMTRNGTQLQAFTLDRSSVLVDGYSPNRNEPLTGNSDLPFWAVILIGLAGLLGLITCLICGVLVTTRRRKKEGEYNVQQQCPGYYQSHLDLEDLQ
Protocol: (§1) 540 phage clones identified from the cell panning were then tested by FACS analysis for binding to HEK293-MUC16WT cells. Briefly, 0.2 million cells (in PBS+5% FBS+0.05% NaN₃) were incubated for 2 h at 4° C. with 50 μl of ˜[…] pfu/mL phage in PBS. FACS was carried out using primary antibody mouse anti-M13 mAb (Thermo #MAI-12900) and secondary antibody PE anti-mouse IgG (Vectors Lab #EI-2007).
(§2) The 40 MUC16 specific clones were tested for their binding to HEK293-MUC16WT. HEK293-MUC16mut, and parental HEK293 cells. […] These clones were thus specific for the N-glycosylation site (N30).

[3] = biological target: T3, wildtype MUC16-C114-GFP fusion protein expressed on HEK293 cells (HEK293-MUC16WT) (human); test: FACS, scFv phage on HEK293-MUC16WT cells (FIG. 5)
T3 construct: not shown: GFP fusion partner
T3 chain: T2 chain with A30N
Protocol: as §1, §2

Binder	MFI increase in binding over the control cells [1]	binding result [2]	binding result [3]
B1	~300 × (fold MFI)		
B2		no binding	binds
B3		no binding	binds
